This passage reports Kd results from publication PMC11544209.

For this series, the target named is T1, PsCas9 WT (UniProt PDB:8UMF_1 1-1462).
T1 sequence: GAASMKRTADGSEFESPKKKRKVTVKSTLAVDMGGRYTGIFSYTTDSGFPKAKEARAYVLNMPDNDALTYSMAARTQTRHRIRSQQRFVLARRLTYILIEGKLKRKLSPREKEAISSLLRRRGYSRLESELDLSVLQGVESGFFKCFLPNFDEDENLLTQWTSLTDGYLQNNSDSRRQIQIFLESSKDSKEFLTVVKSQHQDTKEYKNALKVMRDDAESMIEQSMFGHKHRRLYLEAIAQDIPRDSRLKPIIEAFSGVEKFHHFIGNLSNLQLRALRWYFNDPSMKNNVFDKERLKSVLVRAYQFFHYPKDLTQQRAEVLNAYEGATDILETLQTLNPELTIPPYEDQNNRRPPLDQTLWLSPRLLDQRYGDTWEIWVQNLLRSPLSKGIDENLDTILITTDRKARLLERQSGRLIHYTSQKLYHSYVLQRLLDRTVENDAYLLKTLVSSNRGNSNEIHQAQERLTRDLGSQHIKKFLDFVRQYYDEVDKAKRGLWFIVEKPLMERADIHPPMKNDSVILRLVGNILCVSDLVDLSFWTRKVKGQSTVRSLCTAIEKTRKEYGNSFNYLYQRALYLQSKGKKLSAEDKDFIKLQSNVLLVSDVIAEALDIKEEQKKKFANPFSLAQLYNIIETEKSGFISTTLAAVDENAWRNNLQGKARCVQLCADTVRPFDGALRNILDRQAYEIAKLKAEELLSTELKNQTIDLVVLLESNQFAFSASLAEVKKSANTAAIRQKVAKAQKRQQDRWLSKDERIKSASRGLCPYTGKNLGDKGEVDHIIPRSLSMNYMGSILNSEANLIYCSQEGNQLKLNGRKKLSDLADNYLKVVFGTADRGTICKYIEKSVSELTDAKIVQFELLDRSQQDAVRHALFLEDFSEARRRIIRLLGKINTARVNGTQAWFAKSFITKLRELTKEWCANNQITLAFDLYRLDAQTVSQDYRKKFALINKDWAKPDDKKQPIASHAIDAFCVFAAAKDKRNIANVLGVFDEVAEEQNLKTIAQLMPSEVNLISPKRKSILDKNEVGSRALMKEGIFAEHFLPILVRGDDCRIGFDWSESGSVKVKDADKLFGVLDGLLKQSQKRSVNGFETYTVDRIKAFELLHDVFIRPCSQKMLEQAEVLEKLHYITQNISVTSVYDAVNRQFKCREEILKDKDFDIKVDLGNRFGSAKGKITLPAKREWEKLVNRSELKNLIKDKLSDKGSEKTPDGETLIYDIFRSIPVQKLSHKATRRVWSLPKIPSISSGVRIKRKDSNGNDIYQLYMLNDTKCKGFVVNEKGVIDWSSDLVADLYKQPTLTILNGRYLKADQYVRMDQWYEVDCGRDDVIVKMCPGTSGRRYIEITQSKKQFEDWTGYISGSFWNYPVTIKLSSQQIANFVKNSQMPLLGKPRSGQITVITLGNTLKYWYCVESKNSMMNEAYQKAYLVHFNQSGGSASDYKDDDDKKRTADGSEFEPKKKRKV
The experiment in a line: fluorescence polarization.

B1: EMX1a 38 bp target + PsCas9 original EMX1a sgRNA (mixed)
DNA 1: TGTATGTCACCTCCAATGACTAGGGTGGTACACAAACA
DNA 2: TGTTTGTGTACCACCCTAGTCATTGGAGGTGACATACA
Molecule B1 had a Kd of around 112 nM.

The term Kd denotes a measure of binding affinity in units of concentration. A higher Kd goes with lower affinity.
